Assay [1] addresses T1, Fc-fusion cyno BCMA (in-house; Cat# BCMW6.001) (cyno, UniProt Q02223 1-54 (human entry)).
T1 construct: also called Fc-BCMA Cy; cyno Fc-BCMA; not shown: Fc part
In words: SPR, Fc-BCMA, two-state model, step 2. In general terms: SPR reads the build-up and loss of mass on a sensor chip optically.

Assay [2] deals with T2, Soluble human BCMA ECD (AB Biosciences, Catalog no. P011Xp) (human, UniProt Q02223 1-54).
T2 sequence: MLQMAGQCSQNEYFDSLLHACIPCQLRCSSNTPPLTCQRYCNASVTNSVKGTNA
In words: cell-based or functional assay.

Assay [3] addresses T3, Recombinant mouse BCMA-Fc fusion protein (R&D Systems catalog #593-BC-050) (mouse, UniProt O88472 1-49).
T3 construct: also called mBCMA-Fc; Fc-fusion mouse BCMA; not shown: Fc part of the bought fusion protein
T3 chain: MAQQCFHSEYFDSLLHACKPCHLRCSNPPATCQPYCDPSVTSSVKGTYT
In words: SPR (Biacore T200), biotinylated Fc-BCMA Mouse on a streptavidin chip, BCMB72 as analyte, two-state binding model, Final Complex; column RANGE prints 62.0 - 82.9. Here is the method:
(§1) The binding affinities of anti-BCMA×CD3 bispecific antibody (BCMB72) with Fc-fusion BCMA proteins (human, cyno and mouse) were measured by Surface Plasmon Resonance (SPR) using a Biacore T200 system (GE Healthcare, NJ).
(§2) No protein was immobilized on flow-cell 1 and was used as a reference surface. Binding kinetics experiments were performed at 25° C. in running buffer (PBS pH 7.4, 0.005% P20, 3 mM EDTA). BCMB72 was prepared in running buffer starting from 100 nM to 0.16 nM at 5-fold dilutions. These solutions were injected for 5 min (association phase) at 50 μL/min and the dissociation was monitored for 15 min by flowing running buffer. The chip surface was regenerated by short injections of glycine (pH 1.5) and running buffer at 100 μL/min. Binding kinetics analysis of BCMB72 interactions with Fc-BCMA was performed by double referencing of the data by subtracting the curves generated by buffer injection from the reference-subtracted curves for analyte injections. Global kinetics fitting of the sensorgrams was performed using a Two-State binding Model using Biacore T200 Evaluation Software (GE Healthcare, NJ). The binding affinity results from the Two-State binding model for different BCMA species are reported as First Complex (KD1) and Final Complex (KD) (FIG. 5).

The target of assay [4] is T3, Recombinant mouse BCMA-Fc fusion …. In words: SPR (Biacore T200), biotinylated Fc-BCMA on streptavidin chip. Here is the method: as §1, §2
Assay [5] deals with T1, Fc-fusion cyno BCMA (in-house; Cat# …). The description is as above. As to the method: as §1, §2
The target is the same in assay [6]. In words: SPR, Fc-BCMA, two-state model, Final KD; Final complex KD, two-state model.
Assay [7] has the same target. In words: SPR, Fc-BCMA, two-state model, step 1 (koff1); first step (koff1).
Assay [8] shares this target. In words: SPR (Biacore T200), biotinylated Fc-BCMA Cyno on a streptavidin chip, BCMB72 as analyte, two-state binding model, Final Complex; column RANGE prints 5.36 - 7.27. Here is the method: as §1, §2
For assay [9] the target is unchanged. In words: SPR, Fc-BCMA, two-state model, first complex.
Assay [10] shares this target. In words: SPR, Fc-BCMA, two-state model, step 1 (kon1); first step (kon1).
The next assay addresses T4, cyno BCMA on HEK cells (cyno, UniProt Q02223 1-184 (human entry)).
T4 construct: also called HEK-expressing cyno BCMA
In words: flow cytometry, HEK cells expressing cyno BCMA. In general terms: A flow cytometer gives signals particle by particle.

T4 sequence (Q02223 other isoform, or with tags, fused parts or gaps): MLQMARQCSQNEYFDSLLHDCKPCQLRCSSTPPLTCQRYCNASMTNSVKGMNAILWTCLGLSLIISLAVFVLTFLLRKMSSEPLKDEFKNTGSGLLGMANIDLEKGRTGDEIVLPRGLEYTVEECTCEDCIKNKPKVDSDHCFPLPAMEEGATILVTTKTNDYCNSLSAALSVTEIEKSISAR

B1: BCMB72 (BCMA×CD3 bispecific antibody, BCMB69 × CD3B219) (bispecific antibody, human IgG4 S228P, lambda, F234A L235A)
heavy 1: EVQLVESGGGLVQPGGSLRLSCAASGFTFNTYAMNWVRQAPGKGLEWVARIRSKYNNYATYYAASVKGRFTISRDDSKNSLYLQMNSLKTEDTAVYYCARHGNFGNSYVSWFAYWGQGTLVTVSSASTKGPSVFPLAPCSRSTSESTAALGCLVKDYFPEPVTVSWNSGALTSGVHTFPAVLQSSGLYSLSSVVTVPSSSLGTKTYTCNVDHKPSNTKVDKRVESKYGPPCPPCPAPEAAGGPSVFLFPPKPKDTLMISRTPEVTCVVVDVSQEDPEVQFNWYVDGVEVHNAKTKPREEQFNSTYRVVSVLTVLHQDWLNGKEYKCKVSNKGLPSSIEKTISKAKGQPREPQVYTLPPSQEEMTKNQVSLTCLVKGFYPSDIAVEWESNGQPENNYKTTPPVLDSDGSFLLYSKLTVDKSRWQEGNVFSCSVMHEALHNHYTQKSLSLSLGK
light 1: QTVVTQEPSLTVSPGGTVTLTCRSSTGAVTTSNYANWVQQKPGQAPRGLIGGTNKRAPGTPARFSGSLLGGKAALTLSGVQPEDEAEYYCALWYSNLWVFGGGTKLTVLGQPKAAPSVTLFPPSSEELQANKATLVCLISDFYPGAVTVAWKADSSPVKAGVETTTPSKQSNNKYAASSYLSLTPEQWKSHRSYSCQVTHEGSTVEKTVAPTECS
heavy 2: not shown
light 2: SYVLTQPPSVSVAPGQTARITCGGNNIGSKSVHWYQQPPGQAPVVVVYDDSDRPSGIPERFSGSNSGNTATLTISRVEAGDEAVYYCQVWDSSSDHVVFGGGTKLTVLGQPKAAPSVTLFPPSSEELQANKATLVCLISDFYPGAVTVAWKGDSSPVKAGVETTTPSKQSNNKYAASSYLSLTPEQWKSHRSYSCQVTHEGSTVEKTVAPTECS
notes: IgG4 made by Fab arm exchange; first heavy/light pair is the CD3B219 arm, second pair the BCMB69 arm; also called B69 × B219; BCMB72.004
Turning to B1, the koff2 in assay [1] is 0.000785 s⁻¹. In [1], this molecule registered a kon2 of 0.00106 s⁻¹. Also, the “Change of EC50 of cytotoxicity on H929 cells in the presence of soluble BCMA ECD” value in [2] amounted to 2 fold. The Kd amounted to 72.4 nM in assay [3], 1.65 nM in assay [6] and 6.5 nM in assay [8]. The figures for the “fold of average KD compared to human BCMA” value in assay [4] and in assay [5] were about 402 fold and about 36 fold, respectively. Also, in assay [7], the koff is 0.00483 s⁻¹. Besides, in assay [9], the KD1 worked out at 3.87 nM. This molecule also registered a kon in [10] of 1.26e+06 M⁻¹ s⁻¹.

B2: BCMB69 (antibody, V domains shown)
VH: QLQLQESGPGLVKPSETLSLTCTVSGGSISSGSYFWGWIRQPPGKGLEWIGSIYYSGITYYNPSLKSRVTISVDTSKNQFSLKLSSVTAADTAVYYCARHDGAVAGLFDYWGQGTLVTVSS
VL: SYVLTQPPSVSVAPGQTARITCGGNNIGSKSVHWYQQPPGQAPVVVVYDDSDRPSGIPERFSGSNSGNTATLTISRVEAGDEAVYYCQVWDSSSDHVVFGGGTKLTVLG
notes: also called BCBM69; antibody derived from the M2 hybridoma
In the case of B2, in the assay with cyno BCMA on HEK cells, the binding result is recorded as “binds”.

Broadly, the Kd is the concentration at which binding is half-saturated. Broadly, the koff is a measure of how fast the partners let go of each other. Low values mean slow dissociation, high ones fast dissociation. One may read the kon as the second-order rate constant of association. Low readings indicate slower complex formation, high ones faster complex formation.

Values taken from patent US20170051068A1 (Janssen / Centocor, published 2017).
